Biological target: ASIC3-YFP (UniProt O35240)
Experiment: FRET or BRET

Chain of UniProt O35240 (O35240 whole entry): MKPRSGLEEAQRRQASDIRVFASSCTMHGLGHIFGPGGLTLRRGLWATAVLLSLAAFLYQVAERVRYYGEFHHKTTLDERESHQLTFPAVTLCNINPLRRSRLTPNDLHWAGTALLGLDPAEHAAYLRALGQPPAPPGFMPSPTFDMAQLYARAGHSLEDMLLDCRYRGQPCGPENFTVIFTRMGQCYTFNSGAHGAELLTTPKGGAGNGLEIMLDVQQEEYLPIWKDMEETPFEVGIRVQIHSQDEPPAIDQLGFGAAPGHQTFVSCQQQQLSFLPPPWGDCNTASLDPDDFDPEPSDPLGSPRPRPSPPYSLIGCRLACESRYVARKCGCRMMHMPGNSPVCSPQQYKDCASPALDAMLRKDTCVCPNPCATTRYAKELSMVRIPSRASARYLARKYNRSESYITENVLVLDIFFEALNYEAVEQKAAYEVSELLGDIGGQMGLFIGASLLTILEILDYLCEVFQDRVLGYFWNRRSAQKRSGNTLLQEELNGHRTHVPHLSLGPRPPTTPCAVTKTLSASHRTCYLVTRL

FRET signal (donor dequenching): 20%
Substance: P2X5-CFP (from UniProt P51578 1-455) (receptor)

Source: publication PMC3000793
